According to US20240033343A1:

What was measured:
M1GGSGG (SARS-CoV-2) = M1GGSGG (SARS-CoV-2) (UniProt P0DTC2)
[1] = target: SARS-CoV-2 Sclamp (SARS-CoV-2) (UniProt P0DTC2)
W1GSG (SARS-CoV-2) = W1GSG (SARS-CoV-2) (UniProt P0DTC2)
S1GSG (SARS-CoV-2) = S1GSG (SARS-CoV-2) (UniProt P0DTC2)
RAA (SARS-CoV-2; HIV) = RAA (SARS-CoV-2; HIV) (UniProt P0DTC2)
AAAA (SARS-CoV-2; HIV) = AAAA (SARS-CoV-2; HIV) (UniProt P0DTC2)
S2GGSGG (SARS-CoV-2) = S2GGSGG (SARS-CoV-2) (UniProt P0DTC2)
S2GSG (SARS-CoV-2) = S2GSG (SARS-CoV-2) (UniProt P0DTC2)
W2GSG (SARS-CoV-2; HIV) = W2GSG (SARS-CoV-2; HIV) (UniProt P0DTC2)
S1GGSGG (SARS-CoV-2) = S1GGSGG (SARS-CoV-2) (UniProt P0DTC2)
[2] = target: W2GGSGG (SARS-CoV-2; HIV) (UniProt P0DTC2)
W1GGSG (SARS-CoV-2; HIV) = W1GGSG (SARS-CoV-2; HIV) (UniProt P0DTC2)

For CR3022 (antibody), the Kd (M1GGSGG (SARS-CoV-2)) was 0.57 nM, the Kd [1] was 0.58 nM and the Kd (W1GSG (SARS-CoV-2)) was 1.08 nM. It also gave a Kd (S1GSG (SARS-CoV-2)) of 1.02 nM, a Kd (RAA (SARS-CoV-2; HIV)) of 0.91 nM and a Kd (AAAA (SARS-CoV-2; HIV)) of 0.74 nM. It also gave a Kd (S2GGSGG (SARS-CoV-2)) of 1.18 nM, a Kd (S2GSG (SARS-CoV-2)) of 1.03 nM and a Kd (W2GSG (SARS-CoV-2; HIV)) of 2.06 nM. It also gave a Kd (S1GGSGG (SARS-CoV-2)) of 0.69 nM, a Kd [2] of 1.09 nM and a Kd (W1GGSG (SARS-CoV-2; HIV)) of 0.89 nM.
